Measurements from patent US7618787B2, “Method of screening compound capable of accelerating or inhibiting apoptosis, apoptosis accelarator and apoptosis inhibitor” (Hisamitsu Pharmaceutical Co., Inc., priority 2004, dated 2009).

Tests used:
[1] = tested on: p53; assay: p53 protein level (stabilization) by immunoblot in cotransfected COS7 cells; format: cell-based; conditions: COS7 cotransfection (FIG. 14, 15)
Method: (§1) Cells were transiently transfected with a total of 2 μg of expression plasmids. After 48 hours of the transfection, the cells were washed with ice-cold PBS and suspended in lysis buffer (pH 8.0; which contained 25 mM Tris-Cl, 137 mM sodium chloride, 1% Triton X-100, 1 mM phenylmethylsulfonyl fluoride (PMSF), and protease inhibitor mix (Roche Molecular Biochemicals)), followed by brief sonication. After centrifugation at 15000 rpm for 10 minutes, the supernatant was collected and assayed for protein concentrations by the Bradford assay (Bio-Rad). Equal amounts of lysates (protein amount: 50 μg) from the whole cells were denatured by boiling in Laemmli SDS-sample buffer, then separated on 10% SDS-polyacrylamide gel (SDS-PAGE), and transferred at room temperature for 1 hour to polyvinylidene difluoride (PVDF) membranes (Immobilon-P; Millipore) in Tris-glycine buffer containing 10% methanol. The membranes were blocked at room temperature for 1 hour with Tris-buffered saline (TBS-T) containing 5% skim milk and 0.1% Tween 20.
As previously reported, some protein kinases (e.g., c-Abl and PKCδ) that interact with p73 can stabilize p73. To confirm whether IKK-α influenced the stabilization of p73, COS7 cells were transfected with a constant amount of HA-p73α expression plasmid together with or without varying amounts of IKK-α expression plasmids and examined for HA-p73α protein levels. […]

[2] = tested on: p73; assay: Luciferase reporter assay, p73-dependent transcriptional activation in H1299 cells; format: cell-based, human
Method: H1299 cells deficient in p53 were seeded at a density of 5×10^4 cells/well onto a 12-well tissue culture dish and transiently transfected with 100 ng of luciferase reporter construct (which carried a p53/p73-responsive element derived from a p21^WAF1, Bax, or MDM2 promoter), 10 ng of pRL-TK Renilla luciferase cDNA, and 25 ng of given expression plasmid (p53, HA-p73α, or HA-p73β) together with or without varying amounts of IKK-α or FLAG-IKK-β expression plasmids. The total amount of DNA per transfection was kept constant (510 ng) with a pcDNA3 empty plasmid. After 48 hours from the transfection, the cells were washed twice with ice-cold PBS and suspended in passive lysis buffer (Promega). Both firefly and Renilla luciferase activities were assayed by use of dual-luciferase reporter assay system (Promega) according to the instruction. […] intensity was measured with TD-20 luminometer (Turner Design). The firefly luciferase signal was normalized based on the Renilla luciferase signal. Results obtained from at least 3 transfections were indicated by mean value±standard deviation.
To explore the functional implication of interaction between IKK-α and p73, the effect of IKK-α on p73-mediated transcriptional activation was first examined. H1299 cells deficient in p53 were transfected with a HA-p73α or HA-p73β expression plasmid and a luciferase reporter construct under the control of a p21^WAF1, Bax, or MDM2 promoter together with or without varying amounts of IKK-α expression plasmids. […] By contrast, increase in p53-responsive reporter gene activity was not induced by IKK-α (FIG. 22). To examine the specificity of p73-dependent transcriptional activation mediated by IKK-α, whether IKK-β enhanced p73 transcriptional activity to p53/p73-responsive promoters was confirmed.

[3] = target: T1, p73 (Homo sapiens, UniProt O15350); assay: p73 protein level (stabilization) by immunoblot in cotransfected COS7 cells; format: cell-based; conditions: COS7 cotransfection (FIG. 14, 15, 29)
T1 construct: expressed in transfected cells; host or cells: COS7
T1 sequence (O15350 1-636): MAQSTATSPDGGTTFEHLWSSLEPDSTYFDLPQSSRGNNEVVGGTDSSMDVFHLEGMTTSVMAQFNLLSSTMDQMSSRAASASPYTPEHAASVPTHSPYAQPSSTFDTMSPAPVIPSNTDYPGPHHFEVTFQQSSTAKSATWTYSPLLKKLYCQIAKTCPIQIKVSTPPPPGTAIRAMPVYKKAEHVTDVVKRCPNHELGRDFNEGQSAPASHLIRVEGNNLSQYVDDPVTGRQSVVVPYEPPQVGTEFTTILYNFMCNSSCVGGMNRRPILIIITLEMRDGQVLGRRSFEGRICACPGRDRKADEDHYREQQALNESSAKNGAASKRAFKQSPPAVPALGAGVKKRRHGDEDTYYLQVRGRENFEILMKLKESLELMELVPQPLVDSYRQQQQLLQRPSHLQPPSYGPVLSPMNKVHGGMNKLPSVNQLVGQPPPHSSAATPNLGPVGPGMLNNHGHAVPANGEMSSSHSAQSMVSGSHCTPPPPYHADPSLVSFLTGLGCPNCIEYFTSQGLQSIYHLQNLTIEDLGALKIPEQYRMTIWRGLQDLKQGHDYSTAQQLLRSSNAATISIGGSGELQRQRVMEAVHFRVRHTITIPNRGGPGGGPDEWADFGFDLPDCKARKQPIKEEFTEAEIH
Method: as §1
(§2) As previously reported, some protein kinases (e.g., c-Abl and PKCδ) that interact with p73 can stabilize p73. To confirm whether IKK-α influenced the stabilization of p73, COS7 cells were transfected with a constant amount of HA-p73α expression plasmid together with or without varying amounts of IKK-α expression plasmids and examined for HA-p73α protein levels. […] Next, whether IKK-β influenced the stabilization of p73 and p53 was investigated by transient transfection.

[4] = target: T2, p73 (Homo sapiens, UniProt O15350); assay: as above; format: cell-based; conditions: COS7 cotransfection
T2 construct: expressed in transfected cells; host or cells: COS7
T2 sequence (O15350 1-499 isoform O15350-2): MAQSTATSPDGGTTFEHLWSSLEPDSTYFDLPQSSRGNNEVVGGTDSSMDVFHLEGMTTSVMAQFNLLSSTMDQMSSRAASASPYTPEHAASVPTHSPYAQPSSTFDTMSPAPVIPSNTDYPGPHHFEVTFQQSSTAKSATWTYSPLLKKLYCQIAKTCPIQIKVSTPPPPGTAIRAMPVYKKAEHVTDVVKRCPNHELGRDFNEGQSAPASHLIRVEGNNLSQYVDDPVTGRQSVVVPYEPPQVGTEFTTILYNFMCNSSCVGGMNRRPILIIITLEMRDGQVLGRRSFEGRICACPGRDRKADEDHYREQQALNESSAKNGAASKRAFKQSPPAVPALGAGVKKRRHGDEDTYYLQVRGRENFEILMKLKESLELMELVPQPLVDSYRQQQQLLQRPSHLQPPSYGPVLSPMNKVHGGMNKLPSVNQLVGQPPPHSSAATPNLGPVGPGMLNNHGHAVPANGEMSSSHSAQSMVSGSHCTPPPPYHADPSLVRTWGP
Method: as §1, §2

B1: IKK-α: IKK-α protein, amino acid sequence SEQ ID NO: 24, expressed from plasmid; apoptosis enhancer (protein, listed as Homo sapiens)
chain: MERPPGLRPGAGGPWEMRERLGTGGFGNVCLYQHRELDLKIAIKSCRLELSTKNRERWCHEIQIMKKLNHANVVKACDVPEELNILIHDVPLLAMEYCSGGDLRKLLNKPENCCGLKESQILSLLSDIGSGIRYLHENKIIHRDLKPENIVLQDVGGKIIHKIIDLGYAKDVDQGSLCTSFVGTLQYLAPELFENKPYTATVDYWSFGTMVFECIAGYRPFLHHLQPFTWHEKIKKKDPKCIFACEEMSGEVRFSSHLPQPNSLCSLIVEPMENWLQLMLNWDPQQRGGPVDLTLKQPRCFVLMDHILNLKIVHILNMTSAKIISFLLPPDESLHSLQSRIERETGINTGSQELLSETGISLDPRKPASQCVLDGVRGCDSYMVYLFDKSKTVYEGPFASRSLSDCVNYIVQDSKIQLPIIQLRKVWAEAVHYVSGLKEDYSRLFQGQRAAMLSLLRYNANLTKMKNTLISASQQLKAKLEFFHKSIQLDLERYSEQMTYGISSEKMLKAWKEMEEKAIHYAEVGVIGYLEDQIMSLHAEIMELQKSPYGRRQGDLMESLEQRAIDLYKQLKHRPSDHSYSDSTEMVKIIVHTVQSQDRVLKELFGHLSKLLGCKQKIIDLLPKVEVALSNIKEADNTVMFMQGKRQKEIWHLLKIACTQSSARSLVGSSLEGAVTPQTSAWLPPTSAEHDHSLSCVVTPQDGETSAQMIEENLNCLGHLSTIIHEANEEQGNSMMNLDWSWLTE
stabilization of p53 [1]: no detectable effect on the stabilization of FLAG-p53
luciferase activity without p73 ([2]; H1299, IKK-α alone): almost no effect on luciferase activity
p73-dependent transcriptional activation of p21WAF1, Bax, MDM2 promoter reporters ([2]; H1299, coexpression with HA-p73α or HA-p73β (FIG. 20, 21, 23)): Remarkable increase in p73-dependent transcriptional activation was dose-dependently observed
induction of endogenous p21WAF1 mediated by p73α ([2]; H1299, immunoblot (FIG. 24)): remarkably up-regulated
amount of HA-p73α [3]: remarkably increased the amount of HA-p73α
stabilization of HA-p73β [4]: stabilized by IKK-α at a degree lower than that of HA-p73α
